Measurements taken from US20210388087A1 (Chugai, published 2021).
Substitutions are numbered along the chain they refer to. Values belong to the binder of their own block, whether it stands above or below them. Where no end group is shown, it is not given here.

What was measured:
[1] = molecular target: human CD137 expressed on cells (human, UniProt Q07011 24-255); assay: cell-based or functional assay
[2] = molecular target: T1, Extracellular domain (24-186) of human CD137 (human, UniProt Q07011 24-186); assay: complex formation, gel filtration
T1 construct: Fc cleaved off; also called hCD137; CD137 extracellular domain

Human CD3eg linker [3] = molecular target: T2, Human CD3eg linker (human); assay: SPR (Biacore T200), 37 degrees C, antibody captured by anti-human Fc on CM4 chip, recombinant human CD3 as analyte, 1:1 model
T2 construct: also called recombinant human CD3
T2 chain: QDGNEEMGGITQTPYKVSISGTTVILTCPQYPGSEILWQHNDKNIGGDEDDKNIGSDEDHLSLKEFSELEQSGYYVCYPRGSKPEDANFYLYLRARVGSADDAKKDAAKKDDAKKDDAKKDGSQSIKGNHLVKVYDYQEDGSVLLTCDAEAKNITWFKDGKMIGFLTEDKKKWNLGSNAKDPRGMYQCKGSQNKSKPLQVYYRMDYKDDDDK

Human CD137 ECD [4] = molecular target: T3, Human CD137 ECD (human); assay: SPR (Biacore T200), 37 degrees C, antibody captured by anti-human Fc on CM4 chip, recombinant human CD137 as analyte, 1:1 model
T3 construct: also called recombinant human CD137

Human CD137 ECD [5] = molecular target: T3, Human CD137 ECD; assay: SPR (Biacore T200), 37 degrees C, antibody captured by anti-human Fc on CM4 chip, recombinant human CD137 as analyte, 1:1 model; 37 degrees C
Human CD3eg linker [6] = molecular target: T4, Human CD3eg linker (human); assay: SPR Biacore T200, 37 C, Ab captured on anti-human Fc, antigen as analyte
T4 construct: Single chain: CD3 epsilon and gamma subunits joined by a 29-mer linker, Flag-tag at the C-terminus; also called recombinant human CD3
T4 chain: T2 chain

Human CD137 ECD [7] = molecular target: T5, Human CD137 ECD (human); assay: as above
T5 construct: also called human CD137 extracellular domain; recombinant human CD137

human CD137-Fc [8] = molecular target: T6, human CD137-Fc (human, biotin-labeled); assay: bead ELISA, IgG on biotinylated antigen, luminescence;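 note: biotinylated antigen captured on streptavidin magnetic beads, then incubated with purified IgG at 50 ng/µL for 1 h at room temperature before detection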
T6 construct: if 90 already holds the Fc, drop the second piece; also called biotin-labeled human CD137 fused to human IgG1 Fc fragment; biotin-human CD137-Fc; not shown: human IgG1 Fc fragment

cyno CD137-Fc = molecular target: T7, cyno CD137-Fc (cynomolgus monkey; human, limits assumed, biotin-labeled); assay: as above
T7 construct: whole entry 92 named; also called biotin-labeled cynomolgus monkey CD137 fused to human IgG1 Fc fragment; not shown: human IgG1 Fc fragment
T7 chain: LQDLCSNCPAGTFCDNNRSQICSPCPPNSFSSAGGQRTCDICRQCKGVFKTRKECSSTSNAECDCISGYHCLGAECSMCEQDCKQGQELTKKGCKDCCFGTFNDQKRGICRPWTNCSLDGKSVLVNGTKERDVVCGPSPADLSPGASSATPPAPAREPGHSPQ

human CD137-Fc [9] = molecular target: T6, human CD137-Fc; assay: bead ELISA on biotin-human CD137-Fc, 0 pmol free CD3e peptide
[10] = molecular target: T8, Biotin-labeled CD3 epsilon peptide antigen (human, also: biotin-labeled, site not given here); assay: bead ELISA, IgG on biotinylated CD3 epsilon peptide, luminescence
T8 construct: also called CD3 peptide
T8 peptide: QDGNEEMGGITQTPY

human CD137-Fc [11] = molecular target: T6, human CD137-Fc; assay: bead ELISA on biotin-human CD137-Fc, free CD3e peptide vs free Fc
human CD137-Fc [12] = molecular target: T6, human CD137-Fc; assay: bead ELISA on biotin-human CD137-Fc, 125 vs 0 pmol free CD3e peptide;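 note: target captured on streptavidin-coated magnetic beads, signal read as fluorescence 2 min after adding APS-5 substrate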
human CD137-Fc [13] = molecular target: T6, human CD137-Fc; assay: bead ELISA on biotin-human CD137-Fc with 62.5 pmol free CD3e peptide as competitor
human CD137-Fc [14] = molecular target: T6, human CD137-Fc; assay: bead ELISA on biotin-human CD137-Fc with 62.5 pmol free human Fc (control competitor)
human CD137-Fc [15] = molecular target: T6, human CD137-Fc; assay: bead ELISA on biotin-human CD137-Fc with 125 pmol/well free CD3e peptide as competitor;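 note: Streptavidin-coated magnetic beads in blocking buffer as the capture surface, well signal read as fluorescence 2 min after adding APS-5 substrate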
[16] = molecular target: T9, biotin-labeled human CD137 fused to human IgG1 Fc fragment (human, UniProt Q07011 24-186, biotin-labeled); assay: ELISA on streptavidin beads, purified IgG
T9 construct: also called human CD137-Fc; biotin-human CD137-Fc; not shown: human IgG1 Fc fragment

[17] = molecular target: T10, biotin-labeled cynomolgus monkey CD137 fused to human IgG1 Fc fragment (cynomolgus monkey; human, UniProt Q07011 24-186, limits assumed, biotin-labeled); assay: ELISA on streptavidin beads
T10 construct: also called cyno CD137-Fc; not shown: human IgG1 Fc fragment
T10 chain: T7 chain

[18] = molecular target: T9, biotin-labeled human CD137 fused to …; assay: bead ELISA, 1250 ng IgG, S/N over biotin-human Fc

binding result [2]: binds
B2: H0868L0581 Fab (Fab, V domains shown)
VH: QVQLVESGGGLVQPGRSLRLSCAASGFKFSNVWMHWVRQAPGKGLEWVAQIKDKYNAYAAYYAPSVKGRFTISRDDSKNSIYLQMNSLKTEDTAVYYCHYVHYASASTLLPAFGVDAWGQGTTVTVSS
VL: DIVMTQSPLSLPVTPGEPASISCQPSQEVVHMNRNTYLHWYQQKPGQAPRLLIYKVSNRFPGVPDRFSGSGSGTDFTLKISRVEAEDVGVYYCAQGTSHPFTFGQGTKLEIK
notes: Fab made by limited Lys-C digestion of the bivalent antibody; also called H0868L581; Fab fragment of H0868L0581

binding result [16]: binds
B6: dBBDu127 (antibody, human IgG1, V domains shown)
VH: QVQLVESGGGLVQPGRSLRLSCAASGFTFSNAWMHWVRQAPGKGLEWVAQIKDRGQQYNAYYAPSVKGRFTISRDDSKNSIYLQMNSLKTEDTAVYYCHYVHYASASSVLPGYGVDAWGQGTTVTVSS
VL: B2 VL with Q24R, P25S, E28S, V29L, M32S, P61S, A94G, S98Q, H99V, F101Y
notes: human IgG1; GLS3000 light chain; also called DXDU01_3 #051; DXDU01_3_#051

binding result [18]: binds
B8: dBBDu126 (antibody, human IgG1, V domains shown)
VH: QVQLVESGGGLVQPGRSLRLSCAASGFTFSIAWMHWVRQAPGKGLEWVAQIKDRVNAYEAYYAPSVKGRFTISRDDSKNSIYLQMNSLKTEDTAVYYCRYVHYASYYDLLGYGGVDAWGQGTTVTVSS
VL: B2 VL with Q24R, P25S, E28S, V29L, M32S, P61S, A94G, S98Q, H99V, F101Y
notes: human IgG1; GLS3000 light chain; also called DADU01_3 #001; DADU01_3_#001
binding result [17]: no binding (tested: 25 micro L of 50 ng/micro L purified IgG)

The next lines start with the binder.

B1: GPC3/CD137×CD3 trispecific antibody (other)
VH 1: QVQLQQWGAGLLKPSETLSLTCAVYGGSFSGYYWSWIRQSPEKGLEWIGEINHGGYVTYNPSLESRVTISVDTSKNQFSLKLSSVTAADTAVYYCARDYGPGNYDWYFDLWGRGTLVTVSS
VL 1: EIVLTQSPATLSLSPGERATLSCRASQSVSSYLAWYQQKPGQAPRLLIYDASNRATGIPARFSGSGSGTDFTLTISSLEPEDFAVYYCQQRSNWPPALTFGGGTKVEIK
VH 2: QVQLVESGGGLVQPGRSLRLSCAASGFTFSNAWMHWVRQAPGKGLEWVAQIKDRANSYNTYYAESVKGRFTISRDDSKNSIYLQMNSLKTEDTAVYYCRYVHYTTYAGSSFSYGVDAWGQGTTVTVSS
VL 2: B2 VL with Q24R, P25S, E28P, V29L, M32S, P61S, A94G, S98Q, H99V, F101Y
VH 3: QVQLVQSGAEVKKPGASVTVSCKASGYTFTDYEMHWIRQPPGEGLEWIGAIDGPTPDTAYSEKFKGRVTLTADKSTSTAYMELSSLTSEDTAVYYCTRFYSYTYWGQGTLVTVSS
VL 3: B2 VL with Q24R, P25S, E28P, V29L, M32S, P61S, A94G, S98Q, H99V, F101Y
Luminescence against CD137 positive cells relative to that against GPC3 positive cells, 1 nM [1]: ~107%
Luminescence against CD137 positive cells relative to that against GPC3 positive cells, 10 nM [1]: ~128%

B3: GPC3/CD137 × CD3 trispecific antibody (antibody, V domains shown)
VH 1: B1 VH 1
VL 1: B1 VL 1
VH 2: B1 VH 2
VL 2: B2 VL with Q24R, P25S, E28P, V29L, M32S, P61S, A94G, S98Q, H99V, F101Y
VH 3: B1 VH 3
VL 3: B2 VL with Q24R, P25S, E28P, V29L, M32S, P61S, A94G, S98Q, H99V, F101Y
notes: Trispecific mAb AB made by Fab-arm exchange from mAb A (CrossMab, two Fv per arm: Fv A1 and Fv A2) and mAb B (conventional IgG, Fv B); Fc gamma R-silent, deglycosylated Fc; also called GPC3/CD137xCD3
Kd (Human CD3eg linker [3]): 19.7 nM
koff (Human CD3eg linker [3]): 0.00161 s⁻¹
kon (Human CD3eg linker [3]): 81800 M⁻¹ s⁻¹
Kd (Human CD137 ECD [4]): 37.7 nM
koff (Human CD137 ECD [4]): 0.0206 s⁻¹
kon (Human CD137 ECD [5]): 547000 M⁻¹ s⁻¹

B4: GPC3/CD137xCD3 (bispecific antibody, V domains shown)
VH 1: B1 VH 1
VL 1: B1 VL 1
VH 2: B1 VH 2
VL 2: B2 VL with Q24R, P25S, E28P, V29L, M32S, P61S, A94G, S98Q, H99V, F101Y
VH 3: B1 VH 3
VL 3: B2 VL with Q24R, P25S, E28P, V29L, M32S, P61S, A94G, S98Q, H99V, F101Y
notes: Fc gamma R silent Fc; also called GPC3/CD137 x CD3 trispecific antibody (2+1)
Kd (Human CD3eg linker [6]): 19.7 nM
koff (Human CD3eg linker [6]): 0.00161 s⁻¹
kon (Human CD3eg linker [6]): 81800 M⁻¹ s⁻¹
Kd (Human CD137 ECD [7]): 37.7 nM
koff (Human CD137 ECD [7]): 0.0206 s⁻¹
kon (Human CD137 ECD [7]): 547000 M⁻¹ s⁻¹

B5: DADU01_3#001 (antibody, V domains shown)
VH: B8 VH
VL: B2 VL with Q24R, P25S, E28S, V29L, M32S, P61S, A94G, S98Q, H99V, F101Y
notes: Human IgG1; light chain GLS3000 (kappa); also called dBBDu126; dBBDu_126
RLU (human CD137-Fc [8]): 95300 RLU
S/N ratio (human CD137-Fc/Fc) (human CD137-Fc [8]): 54.1
RLU (cyno CD137-Fc): 1210 RLU
S/N ratio (cyno CD137-Fc/Fc) (cyno CD137-Fc): 0.687
ELISA signal (human CD137-Fc [9]): 116000
RLU [10]: 198000 RLU
S/N ratio (CD3 peptide/non coating) [10]: 146
Signal decrease (human CD137-Fc [11]): 81.3%
Signal decrease (human CD137-Fc [12]): 97.8%
ELISA signal (human CD137-Fc [13]): 15100
ELISA signal (human CD137-Fc [14]): 81000
ELISA signal (human CD137-Fc [15]): 2610

B7: DXDU01_3#094 (antibody, V domains shown)
VH: B2 VH with K28T, V32A, Y55G, S107A, T108G, L109G, A112G
VL: B2 VL with Q24R, P25S, E28S, V29L, M32S, P61S, A94G, S98Q, H99V, F101Y
notes: Human IgG1; light chain GLS3000 (kappa); also called dBBDu121
RLU (human CD137-Fc [8]): 24200 RLU
S/N ratio (human CD137-Fc/Fc) (human CD137-Fc [8]): 10.2
RLU (cyno CD137-Fc): 19100 RLU
S/N ratio (cyno CD137-Fc/Fc) (cyno CD137-Fc): 8.09
ELISA signal (human CD137-Fc [9]): 3610
RLU [10]: 165000 RLU
S/N ratio (CD3 peptide/non coating) [10]: 141
Signal decrease (human CD137-Fc [11]): 91.1%
Signal decrease (human CD137-Fc [12]): 49.4%
ELISA signal (human CD137-Fc [13]): 9660
ELISA signal (human CD137-Fc [14]): 108000
ELISA signal (human CD137-Fc [15]): 1830
